# Test: dynamic light scattering; self-association of NT below pH 6.4
protein,measurement,value
"NT, N-terminal fragment of major ampullate spidroin (MaSp) 1 from Euprosthenops australis (protein) GSGNSHTTPWTNPGLAENFMNSFMQGLSSMPGFTASQLDDMSTIAQSMVQSIQSLAAQGRTSPNKLQALNMAFASSMAEIAASEEGGGSLSTKTSSIASAMSNAFLQTTGVVNQPFINEITQLVSMFAQAGMNDVSA",hydrodynamic size of polymers,polymers with a hydrodynamic size of ˜700 nm below pH 6.4
